Assays:
[1] = molecular target: T1, human CTLA4 expressed on HEK293-CTLA4 cells (human, UniProt P16410 36-223); experiment: flow cytometry on HEK293-CTLA4 cells, MFI, four-parameter fit
T1 construct: whole, on cells; also called human CTLA4 on the cell surface
Protocol: 3% of BSA/PBS was used to adjust the density of HEK293-CTLA4 cells to 3×10⁶ cells/ml.
Then, APC-goat anti-mouse IgG at a dilution of 1:100 was used, and placed on ice for 30 min for reaction. After that, they were washed with 1% of BSA/PBS and resuspended, and then detected on a FACS machine (using a Guava EasyCyte instrument).
The flow cytometry results were analyzed by Guava 5.3.1 to calculate the mean fluorescence intensity (MFI) of the detected samples. The log values of the obtained MFI versus the concentrations of the samples were calculated, and the experimental results were fit with four parameters using GraphPad Prism 6.0.

[2] = molecular target: T1, human CTLA4 expressed on HEK293-CTLA4 …; experiment: competitive flow cytometry; taken as HEK293-CTLA4 cells with CD86-muFc as the blocked ligand, from the order of paragraph 274 and paragraph 275; the panel has no title
[3] = molecular target: CTLA4-muFc (fusion protein of human CTLA4 and mouse Fc) (human); experiment: competitive flow cytometry; taken as CTLA4-muFc with human CD86 on HEK293-CD86 cells as the blocked ligand, from the order of paragraph 274 and paragraph 275; the panel has no title

EC50 [1]: 2.01 nM
IC50 (read off the curve) [2]: ~8 nM
IC50 (read off the curve) [3]: ~10 nM
B1: KN044 (VHH)
VHH: QVQLVESGGGLVQPGGSLRLSCAASGYIYSAYCMGWFRQAPGKGLEGVAAIYIGGGSTYYADSVKGRFTISRDNSKNTLYLQMNSLRAEDTAVYYCAADVIPTETCLGGSWSGPFGYWGQGTLVTVSS
